Data published in patent US20180045741.

Biological target: unphosphorylated ubiquitin

B1: PINK1-3x Flag isolated from CCCP-treated cells (protein)
chain: MAVRQALGRGLQLGRALLLRFTGKPGRAYGLGRPGPAAGCVRGERPGWAAGPGAEPRRVGLGLPNRLRFFRQSVAGLAARLQRQFVVRAWGCAGPCGRAVFLAFGLGLGLIEEKQAESRRAVSACQEIQAIFTQKSKPGPDPLDTRRLQGFRLEEYLIGQSIGKGCSAAVYEATMPTLPQNLEVTKSTGLLPGRGPGTSAPGEGQERAPGAPAFPLAIKMMWNISAGSSSEAILNTMSQELVPASRVALAGEYGAVTYRKSKRGPKQLAPHPNIIRVLRAFTSSVPLLPGALVDYPDVLPSRLHPEGLGHGRTLFLVMKNYPCTLRQYLCVNTPSPRLAAMMLLQLLEGVDHLVQQGIAHRDLKSDNILVELDPDGCPWLVIADFGCCLADESIGLQLPFSSWYVDRGGNGCLMAPEVSTARPGPRAVIDYSKADAWAVGAIAYEIFGLVNPFYGQGKAHLESRSYQEAQLPALPESVPPDVRQLVRALLQREASKRPSARVAANVLHLSLWGEHILALKNLKLDKMVGWLLQQSAATLLANRLTEKCCVETKMKMLFLANLECETLCQAALLLCSWRAAL
phosphorylation of ubiquitin (Phos-tag assay): PINK1 isolated from CCCP-treated cells phosphorylates ubiquitin
